Test results taken from patent US7744896 (ISTITUTO SUPERIORE DI SANITA, dated 2010).

Experiments:
[1] = biological target: T1, α5β1 integrin (fibronectin receptor) on cytokine-activated human umbilical vein endothelial (HUVE) cells (human, UniProt P08648 42-1049; P05556 21-798); test: conclusion of the uptake inhibition experiments on IC-activated HUVE cells
T1 construct: whole, on cells; also called FN receptor

[2] = biological target: T2, αvβ3 integrin (vitronectin receptor) on cytokine-activated human umbilical vein endothelial (HUVE) cells (human, UniProt P06756 31-1048; P05106 27-788); test: as above
T2 construct: whole, on cells; also called VN receptor
T2 sequence (P06756 31-1048, chain 1 of 2): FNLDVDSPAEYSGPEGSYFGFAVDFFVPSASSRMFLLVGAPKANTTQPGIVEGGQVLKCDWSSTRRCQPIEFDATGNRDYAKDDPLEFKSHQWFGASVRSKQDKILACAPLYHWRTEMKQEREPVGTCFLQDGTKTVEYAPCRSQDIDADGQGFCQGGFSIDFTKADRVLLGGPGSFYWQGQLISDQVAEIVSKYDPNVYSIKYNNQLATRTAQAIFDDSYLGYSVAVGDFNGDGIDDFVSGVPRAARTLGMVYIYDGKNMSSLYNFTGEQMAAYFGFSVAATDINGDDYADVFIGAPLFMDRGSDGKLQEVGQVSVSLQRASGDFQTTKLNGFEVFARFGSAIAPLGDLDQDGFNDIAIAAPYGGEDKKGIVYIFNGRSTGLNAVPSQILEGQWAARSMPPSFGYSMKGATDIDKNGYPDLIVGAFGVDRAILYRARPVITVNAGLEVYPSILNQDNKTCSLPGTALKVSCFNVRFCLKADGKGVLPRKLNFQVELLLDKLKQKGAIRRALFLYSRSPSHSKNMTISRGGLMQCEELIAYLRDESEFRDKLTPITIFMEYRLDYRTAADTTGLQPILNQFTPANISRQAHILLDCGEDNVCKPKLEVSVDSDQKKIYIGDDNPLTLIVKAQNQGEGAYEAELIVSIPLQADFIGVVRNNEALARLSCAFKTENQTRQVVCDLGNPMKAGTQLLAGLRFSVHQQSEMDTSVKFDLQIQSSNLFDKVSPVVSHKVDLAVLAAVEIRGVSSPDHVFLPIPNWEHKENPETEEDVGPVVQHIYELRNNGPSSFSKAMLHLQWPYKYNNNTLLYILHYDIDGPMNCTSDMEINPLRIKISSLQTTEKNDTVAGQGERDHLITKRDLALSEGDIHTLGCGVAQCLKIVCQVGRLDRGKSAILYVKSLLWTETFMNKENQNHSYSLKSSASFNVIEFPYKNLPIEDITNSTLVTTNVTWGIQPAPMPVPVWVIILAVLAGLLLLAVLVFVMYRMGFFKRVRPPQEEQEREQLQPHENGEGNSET
T2 sequence (P05106 27-788, chain 2 of 2): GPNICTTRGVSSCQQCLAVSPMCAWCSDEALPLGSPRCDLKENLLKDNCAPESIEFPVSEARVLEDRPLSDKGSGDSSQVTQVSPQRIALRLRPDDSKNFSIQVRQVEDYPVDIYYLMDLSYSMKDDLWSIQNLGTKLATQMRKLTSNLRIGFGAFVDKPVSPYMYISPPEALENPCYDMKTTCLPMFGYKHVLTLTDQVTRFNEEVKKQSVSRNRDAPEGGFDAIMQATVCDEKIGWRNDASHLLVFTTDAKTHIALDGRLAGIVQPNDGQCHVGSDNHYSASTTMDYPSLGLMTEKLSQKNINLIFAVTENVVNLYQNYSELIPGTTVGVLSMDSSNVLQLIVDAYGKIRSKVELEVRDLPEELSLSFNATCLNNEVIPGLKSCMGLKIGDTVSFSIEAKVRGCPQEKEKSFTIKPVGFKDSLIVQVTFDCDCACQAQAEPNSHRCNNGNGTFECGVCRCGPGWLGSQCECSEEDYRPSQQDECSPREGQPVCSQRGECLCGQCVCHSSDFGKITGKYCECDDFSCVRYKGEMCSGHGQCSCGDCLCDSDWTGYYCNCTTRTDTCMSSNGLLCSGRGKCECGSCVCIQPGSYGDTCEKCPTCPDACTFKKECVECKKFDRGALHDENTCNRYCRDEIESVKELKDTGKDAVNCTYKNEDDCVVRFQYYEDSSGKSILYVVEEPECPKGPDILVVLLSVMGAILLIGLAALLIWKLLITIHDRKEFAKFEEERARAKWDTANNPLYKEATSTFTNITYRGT

T1 sequence (P08648 42-1049, chain 1 of 2): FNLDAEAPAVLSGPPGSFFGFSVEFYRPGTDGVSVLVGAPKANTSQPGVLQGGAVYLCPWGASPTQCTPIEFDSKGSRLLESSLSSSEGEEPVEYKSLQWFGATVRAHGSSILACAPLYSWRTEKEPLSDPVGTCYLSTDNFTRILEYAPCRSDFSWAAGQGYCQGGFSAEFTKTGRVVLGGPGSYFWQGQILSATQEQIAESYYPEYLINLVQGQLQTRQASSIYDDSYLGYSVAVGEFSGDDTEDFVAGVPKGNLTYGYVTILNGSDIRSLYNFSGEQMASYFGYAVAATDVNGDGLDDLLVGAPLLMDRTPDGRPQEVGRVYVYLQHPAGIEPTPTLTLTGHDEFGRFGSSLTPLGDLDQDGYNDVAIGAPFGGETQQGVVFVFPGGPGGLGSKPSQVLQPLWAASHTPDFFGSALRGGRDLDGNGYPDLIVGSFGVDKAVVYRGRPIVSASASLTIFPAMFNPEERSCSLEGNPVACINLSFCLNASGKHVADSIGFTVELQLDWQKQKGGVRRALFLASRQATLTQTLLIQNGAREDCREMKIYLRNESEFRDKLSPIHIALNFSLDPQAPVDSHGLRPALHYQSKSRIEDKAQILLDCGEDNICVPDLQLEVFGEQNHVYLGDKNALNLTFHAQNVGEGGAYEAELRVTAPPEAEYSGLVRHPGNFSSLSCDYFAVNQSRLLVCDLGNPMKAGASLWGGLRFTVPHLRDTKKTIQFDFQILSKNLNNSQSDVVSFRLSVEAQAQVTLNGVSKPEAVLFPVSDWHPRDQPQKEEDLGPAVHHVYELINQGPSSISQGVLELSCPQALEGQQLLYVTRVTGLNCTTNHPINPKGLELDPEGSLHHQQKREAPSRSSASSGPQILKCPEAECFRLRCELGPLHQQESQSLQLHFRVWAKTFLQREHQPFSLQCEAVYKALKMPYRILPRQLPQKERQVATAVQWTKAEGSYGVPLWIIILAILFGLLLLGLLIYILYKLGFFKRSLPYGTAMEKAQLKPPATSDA
T1 sequence (P05556 21-798, chain 2 of 2): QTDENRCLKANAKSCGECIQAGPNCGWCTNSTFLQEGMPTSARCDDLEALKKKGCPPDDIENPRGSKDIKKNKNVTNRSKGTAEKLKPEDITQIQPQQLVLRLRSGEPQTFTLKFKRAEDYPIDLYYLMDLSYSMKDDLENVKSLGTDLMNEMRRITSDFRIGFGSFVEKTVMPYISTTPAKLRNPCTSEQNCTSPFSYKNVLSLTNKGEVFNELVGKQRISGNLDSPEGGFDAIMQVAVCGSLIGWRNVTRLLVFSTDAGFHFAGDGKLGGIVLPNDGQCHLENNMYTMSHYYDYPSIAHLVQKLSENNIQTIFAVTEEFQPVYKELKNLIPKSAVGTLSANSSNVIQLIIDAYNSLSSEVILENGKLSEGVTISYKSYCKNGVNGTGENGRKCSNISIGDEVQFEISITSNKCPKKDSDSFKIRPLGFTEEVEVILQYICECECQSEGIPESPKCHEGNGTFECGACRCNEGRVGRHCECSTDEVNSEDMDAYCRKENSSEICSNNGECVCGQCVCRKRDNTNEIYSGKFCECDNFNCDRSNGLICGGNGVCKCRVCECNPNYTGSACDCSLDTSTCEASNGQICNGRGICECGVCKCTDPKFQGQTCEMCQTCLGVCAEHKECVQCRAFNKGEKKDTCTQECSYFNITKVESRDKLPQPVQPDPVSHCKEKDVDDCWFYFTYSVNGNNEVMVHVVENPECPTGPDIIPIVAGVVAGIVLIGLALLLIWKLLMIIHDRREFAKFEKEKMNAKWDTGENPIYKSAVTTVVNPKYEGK

B1: rhodaminated Tat protein (other)
chain: MEPVDPRLEPWKHPGSQPKTACTNCYCKKCCFHCQVCFITKALGISYGRKKRRQRRRPPQGSQTHQVSLSKQPTSQSRGDPTGPKE
modifications: rhodaminated (TRITC) at lysine residues
notes: Recombinant Tat labelled with TRITC; also called rhodaminated biologically-active Tat protein
binding result [1]: binds | binding result [2]: binds
